In article PMC6774396 (Frontiers in Immunology, 2019):

How the values were obtained:
[1] = target: moesin FERM domain, 1-297 (UniProt P26038); experiment: SPR competition assay
[2] = test system: THP-1 cells over TNF-α-activated HUVEC; experiment: L-selectin-GFP/RFP clustering in mid-TEM under flow, FLIM/FRET; assay type: cell-based, human
Method: (A) Line scanning confocal microscopic image of THP-1 cells, stably expressing GFP, captured in mid-TEM—following 15 min of perfusion over TNF-α-activated HUVEC monolayers. […] “Top” and “Base,” respectively, represent the apical and basolateral aspect of the endothelium (x63 objective lens, Leica SP5). Scale bar = 24 μm. (B,C) THP-1 cells expressing WT, SSAA, or SSDD L-selectin-GFP/RFP were perfused over TNF-α-activated HUVEC and fixed after 15 min of perfusion. […] Lifetime images taken of at least 45 cells and analyzed over 3 independent experiments was quantified and expressed as FRET efficiency. Images representative of three independent experiments, where at least 45 cells of each group was analyzed at two optical sections, Top and Base, as indicated in the cartoon of a yellow monocyte captured in mid-TEM crossing a red endothelium. Individual GFP channel and lifetime images are provided for each cell line. The lifetime of fluorescence is expressed in a pseudocolour scale from red (low lifetime with a very high probability of interaction) to blue (high lifetime with a very low probability of interaction). Statistics: unpaired student t-test ***p ≤ 0.001.
Cells expressing WT L-selectin-GFP/RFP were treated for 30 min with 10 μM TAPI-0 and subsequently perfused over TNF-activated HUVEC monolayers for 15 min prior to fixation and analysis for FRET by FLIM (see Materials and Methods for more detail). […] (B) Images representative of three independent experiments, where at least 45 cells of each group were analyzed at two optical sections–non-transmigrated uropods (Top) and transmigrated pseudopods (Base). GFP fluorescence channel and lifetime images are provided for each cell line. The lifetime of fluorescence is expressed in a pseudocolour scale from red (low lifetime with a very high probability of interaction) to blue (high lifetime with a very low probability of interaction). […]
FLIM measurement of FRET was performed with a multiphoton microscope system as described previously ([8], [23]). […] Fluorescence lifetime imaging capability was provided by time-correlated, single-photon counting electronics (SPC 700; Becker & Hickl). […] Data were analyzed as previously described ([65]). The FRET efficiency is related to the molecular separation of donor and acceptor and the fluorescence lifetime of the interacting fraction by: […]
where ηFRET is the FRET efficiency, R0 is the Förster radius, r is the molecular separation, τFRET is the lifetime of the interacting fraction and τd is the lifetime of the donor in the absence of an acceptor. The donor- only control is used as the reference against which all of other lifetimes are calculated in each experiment. τFRET and τd can also be taken to be the lifetime of the interacting fraction and non-interacting fraction, respectively. […]

[3] = test system: THP-1 cells over TNF-α-activated HUVEC; experiment: Pseudopod protrusion scoring in TEM under flow; assay type: cell-based, human
Method: (A) The number of protrusions formed over this period was scored as: zero, one, two, or >2. (B) The percentages of cells bearing these protrusions were scored at specific time points: 6 min (blue bars), 15 min (green bars), or 25 min (red bars). Supplementary Videos 2, 3, 4 provide examples of cells producing a range of protrusions as TEM proceeds. Data represent SEM of 3 fields of view per flow experiment, conducted on three separate occasions, and at least 180 cells analyzed per group. Values of the vertical lines indicate the differences in protrusion number (specifically “zero” and “two”) corresponding to each of the cell lines, for which statistical significance is shown in Table 1.
All flow experiments were performed using a 35 mm diameter Glycotech parallel plate flow chamber. Perfusion experiments were performed at 1.5 dyn/cm^2 using a Harvard Apparatus 2000 PHD syringe pump. Perfusion media consisted of: RPMI supplemented with L-glutamine, 10% FCS, 1% penicillin/streptomycin, 50 μM β-mercaptoethanol, and 25 mM HEPES. Human Umbilical Vein Endothelial Cells (HUVEC–Lonza) were seeded onto 35 mm diameter glass coverslips (no. 1 thickness; VWR) that were pre-coated with 10 μg/mL fibronectin (37°C for at least 1 h). Before each perfusion assay, HUVEC were stimulated overnight (16 h) with 10 ng/mL carrier-free recombinant human TNF-α (R&D Systems). Each perfusion assay was performed by injecting a bolus of cells for 6 min, followed by just perfusion media (without cells) for the […]. THP-1 cells were perfused at a density of 0.5 ×10^6 cells per mL. THP-1 cells treated with 10 μM TAPI-0 required a preincubation time of 10 min at 37°C before perfusion over TNF-α-activated HUVEC. Note that 10 μM TAPI-0 was also supplemented in the perfusate. Stills were acquired once every 10 seconds using 10 × objective lens.

L-selectin cytoplasmic tail, 356-372 (from UniProt P14151) pS364 tail peptide
binding against the reference ([1]; reference: non-phosphorylated tail peptide (NPP), sites S364): lost

CC(C)C[C@H](CC(=O)NO)C(=O)N[C@@H](Cc1ccc2ccccc2c1)C(=O)N[C@@H](C)C(N)=O [TAPI-0, reference compound]
subcellular distribution of WT L-selectin clustering during TEM with sheddase inhibitor ([2]; 10 μM TAPI-0 pretreatment and in perfusate, WT L-selectin-GFP/RFP, 15 min perfusion): a large majority of L-selectin clustering had relocated from transmigrated pseudopods to non-transmigrated uropods

L-selectin cytoplasmic tail, 356-372 (from UniProt P14151) pS367 tail peptide
binding against the reference ([1]; reference: non-phosphorylated tail peptide (NPP), sites S367): same

mouse L-selectin cytoplasmic tail (from UniProt P18337) mouse pS364 tail peptide
binding against the reference ([1]; reference: mouse non-phosphorylated tail peptide (NPP), sites S364): lost

B1: SSDD: L-selectin with phospho-mimicking aspartates at Ser^364 and Ser^367 (protein)
chain: WTYHYSEKPMNWQRARRFCRDNYTDLVAIQNKAEIEYLEKTLPFSRSYYWIGIRKIGGIWTWVGTNKSLTEEAENWGDGEPNNKKNKEDCVEIYIKRNKDAGKWNDDACHKLKAALCYTASCQPWSCSGHGECVEIINNYTCNCDVGYYGPQCQFVIQCEPLEAPELGTMDCTHPLGNFSFSSQCAFSCSEGTNLTGIEETTCGPFGNWSSPEPTCQVIQCEPLSAPDLGIMNCSHPLASFSFTSACTFICSEGTELIGKKKTICESSGIWSNPSPICQKLDKSFSMIKEGDYNPLFIPVAVMVTAFSGLAFIIWLARRLKKGKKDKRDMNDPY
modifications: left off: eGFP (donor copy) or mCherry (acceptor copy, called RFP), C-terminal, kept
subcellular distribution of L-selectin clustering during TEM (FLIM/FRET) ([2]; 15 min perfusion at 1.5 dyn/cm^2, fixed in mid-TEM, Top = non-transmigrated uropods, Base = transmigrated pseudopods, at least 45 cells, 3 experiments, no TAPI-0): lacked any signs of clustering during TEM

B2: S364A: L-selectin with Ser^364 mutated to alanine, GFP-tagged, expressed in THP-1 cells (protein, UniProt P14151 39-372, looked up, variant S364A)
L-selectin: WTYHYSEKPMNWQRARRFCRDNYTDLVAIQNKAEIEYLEKTLPFSRSYYWIGIRKIGGIWTWVGTNKSLTEEAENWGDGEPNNKKNKEDCVEIYIKRNKDAGKWNDDACHKLKAALCYTASCQPWSCSGHGECVEIINNYTCNCDVGYYGPQCQFVIQCEPLEAPELGTMDCTHPLGNFSFSSQCAFSCSEGTNLTGIEETTCGPFGNWSSPEPTCQVIQCEPLSAPDLGIMNCSHPLASFSFTSACTFICSEGTELIGKKKTICESSGIWSNPSPICQKLDKSFSMIKEGDYNPLFIPVAVMVTAFSGLAFIIWLARRLKKGKKAKRSMNDPY
modifications: C-terminal GFP tag
protrusive activity profile in TEM (in words) ([3]; 6, 15 and 25 min of flow over TNF-α-activated HUVEC): produced a profile of protrusive activity that was similar to cells expressing WT L-selectin | cells with 2 protrusions ([3]; 15 min time point, mean of 3 fields of view per flow experiment, three occasions, at least 180 cells per group, significance ** S367A p ≤ 0.01 (Tukey), % printed): 32.9% | cells with 0 protrusions ([3]; 15 min time point, mean of 3 fields of view per flow experiment, three occasions, at least 180 cells per group, significance *** S367A p ≤ 0.001, ** SSAA p ≤ 0.01 (Tukey), % printed): 11.3%
